Experimental data as given in patent publication US8410045B2, “Camptothecin-peptide conjugates and pharmaceutical compositions containing the same” (Drais Pharmaceuticals, Inc., priority 2006, dated 2013).
Read-outs that look alike come from different tables or passages of the source. Where a SMILES comes first, the peptide text is derived from it. Where no end group is shown, it is not given here. Side-chain parts run from the residue outwards. The star is where a group is joined. X2 = CCc1c2c(nc3ccc(OC(=O)[C@H]4CC[C@H](CNC(=O)CCCCCNC(=O)C5CCC(CN6C(=O)CC(*)C6=O)CC5)CC4)cc13)-c1cc3c(c(=O)n1C2)COC(=O)[C@]3(O)CC; X3 = CCc1c2c(nc3ccc(OC(=O)CCCCCNC(=O)C4CCC(CN5C(=O)CC(*)C5=O)CC4)cc13)-c1cc3c(c(=O)n1C2)COC(=O)[C@]3(O)CC; X5 = CCc1c2c(nc3ccc(OC(=O)CCN4C(=O)CC(*)C4=O)cc13)-c1cc3c(c(=O)n1C2)COC(=O)[C@]3(O)CC; X8 = CC[C@@]1(O)C(=O)OCc2c1cc1n(c2=O)Cc2cc3cc(OC(=O)CCN4C(=O)CC(*)C4=O)ccc3nc2-1; SN38 = active drug (irinotecan metabolite) conjugated via the linker; MIC = not defined here

What was measured:
[1] = Stability of conjugates in citrated plasma at 37° C. (half life time, HPLC fluorescence); assay type: in vitro ADME, human; settings: for half-life: human, plasma
Protocol: (§1) The stability of the conjugates was tested in citrated plasma (10% (v/v) sodium citrate buffer, 0.106M) from different species (see Table 1 below). The conjugates at 2.55 μM were incubated at 37° C. in plasma. Samples were analysed using the HPLC fluorescence method described below (see chromatographic equipment and conditions) following TFA/acetonitrile extraction and the amount of free camptothecin, analogs or derivatives thereof (e.g. SN38) released by the conjugates was measured.
(§2) Chromatographic equipment and conditions: 150 μL of each sample were placed in 1.5 mL micro-centrifuge tubes. 450 μL of 5% (v/v) TFA in H2O was added to each tube and the mixture was vortexed for 5 seconds. Samples were then centrifuged at 16000 g, 3 minutes at +4° C. 100 μL of supernatant were placed in 1.5 mL micro-centrifuge tubes. Methanol (100 μL) was then immediately added and vortexed for 5 seconds. Samples were then centrifuged at 16000 g, 3 minutes at room temperature. 150 μL of supernatant were recovered for HPLC analysis. Conjugates, metabolites and camptothecin derivative (i.e. SN38) were separated by high-performance liquid chromatography (HPLC; Agilent 1100 series equipped with a fluorescence detector) using a 4.6×100 mm ([…] particle size) Luna C18(2) column (Phenomenex ref. 00D-4251-E0, Le Pecq, France). The aqueous component of the mobile phase (A) was 0.1% (v/v) TFA in water. The organic modifier (B) was acetonitrile containing 0.1% (v/v) TFA. For the conjugate and its metabolites an elution gradient increasing linearly the proportion of B from 15 to 37% in 2 min, from 37 to 47% in 6 min, followed by 2 min at 90% was applied with a constant flow rate of 1.2 mL/min. The proportion of B was then returned to the initial condition for 3.0 min.
(§3) The half life time of conjugate corresponds to the time necessary to have 50% by mole of free camptothecin, analogs or derivatives thereof released by the conjugates of the invention. In human plasma, the half life time of conjugate DPV1047-linker #1-SN38 (less than 5 mins) was shorter than that of conjugate DPV1047-linker #2-SN38 (6-7 mins), which, in turn, was shorter than that of conjugate DPV1047-linker #3-SN38 (12 mins).
(§4) As in Example II, the stability of these conjugates was tested in either human or dog plasma. Following incubation at 37° C., samples were analyzed after a TFA acetonitrile extraction by the HPLC fluorescence method described in Example II. The in vitro cytotoxicity (IC50) of these compounds was also evaluated.

[2] = as above; assay type: in vitro ADME; settings: dog
Protocol: as §1, §2, §3, §4

[3] = as above; assay type: in vitro ADME; settings: DPV1047-linker-SN38, 2.55 μM
Protocol: as §1, §2, §3

[4] = test system: HCT 116 human colorectal carcinoma tumor
[5] = Table 14, 10-Hydroxycamptothecin conjugates, read-out: Human Plasma Half life time
[6] = Table 14, 10-Hydroxycamptothecin conjugates, read-out: Dog Plasma Half life time
[7] = DPV1047-linker-SN38, 2.55 μM, citrated plasma, read-out: Half life time, Human plasma
[8] = Table 10, SN38 conjugates, read-out: Human Plasma Half life time
[9] = Table 10, SN38 conjugates, read-out: Dog Plasma Half life time
[10] = DPV1047-linker-SN38, 2.55 μM, citrated plasma, read-out: Half life time, Dog plasma
[11] = time to 50% by mole free SN38 released, read-out: Half life time, Mouse plasma

## CC[C@@]1(O)C(=O)OCc2c1cc1n(c2=O)Cc2cc3cc(OC(=O)CCN4C(=O)CC(SC[C@H](N)C(=O)N[C@H](C(=O)N[C@@H](CCCCN)C(=O)N[C@@H](CCCNC(=N)N)C(=O)NCC(=O)N[C@@H](CC(C)C)C(=O)N[C@@H](CCCCN)C(=O)N[C@@H](CC(C)C)C(=O)N[C@@H](CCCNC(=N)N)C(=O)N[C@@H](Cc5c[nH]cn5)C(=O)N[C@H](C(=O)N[C@@H](CCCNC(=N)N)C(=O)N5CCC[C@H]5C(=O)N[C@@H](CCCNC(=N)N)C(=O)N[C@H](C(=O)N[C@H](C(=O)N[C@@H](CCCNC(=N)N)C(=O)N[C@@H](CCSC)C(=O)N[C@@H](CC(=O)O)C(=O)N[C@H](C(=O)O)C(C)C)[C@@H](C)O)C(C)C)C(C)C)C(C)C)C4=O)ccc3nc2-1 (stereo partly drawn) [DPV1047-linker #1-10 Hydroxycamptothecin] (H-C(X8)VKRGLKLRHVRPRVTRMDV-OH)
[1]; [5]
  half-life: < 3 min
[2]; [6]
  half-life: 3 min

## CCc1c2c(nc3ccc(OC(=O)CCN4C(=O)CC(SC[C@H](N)C(=O)N[C@H](C(=O)N[C@@H](CCCCN)C(=O)N[C@@H](CCCNC(=N)N)C(=O)NCC(=O)N[C@@H](CC(C)C)C(=O)N[C@@H](CCCCN)C(=O)N[C@@H](CC(C)C)C(=O)N[C@@H](CCCNC(=N)N)C(=O)N[C@@H](Cc5c[nH]cn5)C(=O)N[C@H](C(=O)N[C@@H](CCCNC(=N)N)C(=O)N5CCC[C@H]5C(=O)N[C@@H](CCCNC(=N)N)C(=O)N[C@H](C(=O)N[C@H](C(=O)N[C@@H](CCCNC(=N)N)C(=O)N[C@@H](CCSC)C(=O)N[C@@H](CC(=O)O)C(=O)N[C@H](C(=O)O)C(C)C)[C@@H](C)O)C(C)C)C(C)C)C(C)C)C4=O)cc13)-c1cc3c(c(=O)n1C2)COC(=O)[C@]3(O)CC (stereo partly drawn) [DPV1047-linker #1-SN38] (H-C(X5)VKRGLKLRHVRPRVTRMDV-OH)
[1]; DPV1047-linker-SN38, 2.55 μM, citrated plasma
  Half life time, Human plasma: <5 min
[1]; [7]
  half-life: < 5 min
[1]; [8]
  half-life: < 3 min
[2]; [9]
  half-life: 11.3 min

## CCc1c2c(nc3ccc(OC(=O)CCCCCNC(=O)C4CCC(CN5C(=O)CC(SC[C@H](N)C(=O)N[C@H](C(=O)N[C@@H](CCCCN)C(=O)N[C@@H](CCCNC(=N)N)C(=O)NCC(=O)N[C@@H](CC(C)C)C(=O)N[C@@H](CCCCN)C(=O)N[C@@H](CC(C)C)C(=O)N[C@@H](CCCNC(=N)N)C(=O)N[C@@H](Cc6c[nH]cn6)C(=O)N[C@H](C(=O)N[C@@H](CCCNC(=N)N)C(=O)N6CCC[C@H]6C(=O)N[C@@H](CCCNC(=N)N)C(=O)N[C@H](C(=O)N[C@H](C(=O)N[C@@H](CCCNC(=N)N)C(=O)N[C@@H](CCSC)C(=O)N[C@@H](CC(=O)O)C(=O)N[C@H](C(=O)O)C(C)C)[C@@H](C)O)C(C)C)C(C)C)C(C)C)C5=O)CC4)cc13)-c1cc3c(c(=O)n1C2)COC(=O)[C@]3(O)CC (stereo partly drawn) [DPV1047-linker #4-SN38] (H-C(X3)VKRGLKLRHVRPRVTRMDV-OH)
[1]; [7]
  half-life: 40 min
[2]; [10]
  half-life: 105 min
[3]; [11]
  half-life: < 3 min
[3]; monkey
  half-life: 30 min
[3]; rat
  half-life: 3 min

## CCc1c2c(nc3ccc(OC(=O)[C@H]4CC[C@H](CNC(=O)CCCCCNC(=O)C5CCC(CN6C(=O)CC(SC[C@H](N)C(=O)N[C@H](C(=O)N[C@@H](CCCCN)C(=O)N[C@@H](CCCNC(=N)N)C(=O)NCC(=O)N[C@@H](CC(C)C)C(=O)N[C@@H](CCCCN)C(=O)N[C@@H](CC(C)C)C(=O)N[C@@H](CCCNC(=N)N)C(=O)N[C@@H](Cc7c[nH]cn7)C(=O)N[C@H](C(=O)N[C@@H](CCCNC(=N)N)C(=O)N7CCC[C@H]7C(=O)N[C@@H](CCCNC(=N)N)C(=O)N[C@H](C(=O)N[C@H](C(=O)N[C@@H](CCCNC(=N)N)C(=O)N[C@@H](CCSC)C(=O)N[C@@H](CC(=O)O)C(=O)N[C@H](C(=O)O)C(C)C)[C@@H](C)O)C(C)C)C(C)C)C(C)C)C6=O)CC5)CC4)cc13)-c1cc3c(c(=O)n1C2)COC(=O)[C@]3(O)CC (stereo partly drawn) [DPV1047-linker #7-SN38] (H-C(X2)VKRGLKLRHVRPRVTRMDV-OH; N-terminus and C-terminus assumed)
[1]; [7]
  half-life: 150 min
[2]; [10]
  half-life: 165 min
[3]; [11]
  half-life: < 3 min
[3]; monkey
  half-life: 90 min
[3]; rat
  half-life: 9 min

## CCc1c2c(nc3ccc(OC(=O)CCN4C(=O)CC(SC[C@H](N)C(=O)N[C@@H](CCCNC(=N)N)C(=O)N[C@@H](CCC(N)=O)C(=O)N[C@H](C(=O)N[C@@H](CCCCN)C(=O)N[C@H](C(=O)N[C@@H](Cc5c[nH]c6ccccc56)C(=O)N[C@@H](Cc5ccccc5)C(=O)N[C@@H](CCC(N)=O)C(=O)N[C@@H](CC(N)=O)C(=O)N[C@@H](CCCNC(=N)N)C(=O)N[C@@H](CCCNC(=N)N)C(=O)N[C@@H](CCSC)C(=O)N[C@@H](CCCCN)C(=O)N[C@@H](Cc5c[nH]c6ccccc56)C(=O)N[C@@H](CCCCN)C(=O)N[C@@H](CCCCN)C(=O)O)[C@@H](C)CC)[C@@H](C)CC)C4=O)cc13)-c1cc3c(c(=O)n1C2)COC(=O)[C@]3(O)CC (stereo partly drawn) [Penetratin-linker #1-SN38]
[1]; [8]
  half-life: < 3 min
[2]; [9]
  half-life: 16.5 min

## CC[C@@]1(O)C(=O)OCc2c1cc1n(c2=O)Cc2cc3cc(OC(=O)CCCCCNC(=O)C4CCC(CN5C(=O)CC(SC[C@H](NC(=O)[C@H](CCC(N)=O)NC(=O)[C@@H]6CCCN6C(=O)[C@@H]6CCCN6C(=O)[C@H](CCCNC(=N)N)NC(=O)[C@H](CCCNC(=N)N)NC(=O)[C@H](CCCNC(=N)N)NC(=O)[C@H](CCC(N)=O)NC(=O)[C@H](CCCNC(=N)N)NC(=O)[C@H](CCCNC(=N)N)NC(=O)[C@H](CCCCN)NC(=O)[C@H](CCCCN)NC(=O)[C@H](CCCNC(=N)N)NC(=O)CN)C(=O)O)C5=O)CC4)ccc3nc2-1 (stereo partly drawn) [Tat-linker #4-10 Hydroxycamptothecin]
[1]; [5]
  half-life: 7.3 min
[2]; [6]
  half-life: 20 min

## CCc1c2c(nc3ccc(OC(=O)[C@H]4CC[C@H](CNC(=O)C5CCC(CN6C(=O)CC(SC[C@H](NC(=O)[C@H](CCC(N)=O)NC(=O)[C@@H]7CCCN7C(=O)[C@@H]7CCCN7C(=O)[C@H](CCCNC(=N)N)NC(=O)[C@H](CCCNC(=N)N)NC(=O)[C@H](CCCNC(=N)N)NC(=O)[C@H](CCC(N)=O)NC(=O)[C@H](CCCNC(=N)N)NC(=O)[C@H](CCCNC(=N)N)NC(=O)[C@H](CCCCN)NC(=O)[C@H](CCCCN)NC(=O)[C@H](CCCNC(=N)N)NC(=O)CN)C(=O)O)C6=O)CC5)CC4)cc13)-c1cc3c(c(=O)n1C2)COC(=O)[C@]3(O)CC (stereo partly drawn) [Tat-linker #5-SN38]
[1]; [8]
  half-life: 335 min
[2]; [9]
  half-life: 122 min

## PolyE(16)-MIC-SN38: non cell-penetrating PolyE(16) peptide coupled via MIC linker to SN38 (EEEEEEEEEEEEEEEEC([MIC-SN38]); not fully specified; reading uncertain; also: SN38 attached through MIC linker at Cys) [reference compound]
[4]; 40 μmol/kg, Q4D×3
  activity in the HCT 116 model: not active
[4]; Table 5, Q4Dx3, DPV1047-BCH-SN38 30, PolyE(16)-MIC-SN38 40, irinotecan 48 μmol/kg
  TGI (100-T/C %): 30%
